Experiments:
[1] = target: T1, human ILT2 fused to mouse CD3 zeta chain, on BW cells (human; mouse); assay: flow cytometry on BW cells transfected with human ILT2; fold above background (FAB) [left panel]
T1 construct: domain: trans-membrane and cytoplasmic residues; also called BW-ILT2; BW/ILT2z

[2] = target: T2, biotinylated recombinant human ILT2-Fc (human, UniProt Q8NHL6 24-458, limits assumed, conjugated with biotin (sites not given)); assay: flow cytometry blocking assay: ILT2-biotin binding to cells expressing HLA-G [left panel]
T2 construct: Bought (Sino Biologics); the order of the parts is therefore uncertain; also called ILT2-biotin; biotinylated ILT2; not shown: Fc portion of human IgG1
Protocol: (§1) Flow cytometry blocking assay—Recombinant human ILT2 protein fused with the Fc portion of human IgG1 at the N terminal was conjugated with biotin (Innova bioscience). A total of 5×10⁵ A375/HLA-G1 cells were incubated in a volume of 100 μL in the presence of anti-ILT2 clone #1 or isotype matched control mAb and ILT2-Fc conjugated with biotin (10 μg/mL) for 30 minutes at room temperature. After several washing steps, streptavidin-PE was added at a final concentration of 0.2 μg/mL and incubated for 30 min on ice followed by FACS analysis.
(§2) The ability of the generated anti-ILT2 antibodies to block the interaction between HLA-G and ILT2 was tested using four different assays. First, a blocking flow cytometry assay was performed. HLA-G transfected A375 cells were incubated with biotinylated ILT2 in the presence of the antibodies of the present disclosure and a positive control antibody. The commercially available anti-ILT2 antibody GHI/75 (BioLegend, Cat. No. 333704) was used as the positive control. The binding of ILT2-biotin to the cells was determined using Streptavidin-PE by flow cytometry analysis (FIG. 8A). The percent of blocking was determined by normalizing to a negative control (ILT2 binding in the presence of control IgG). […] The percentage of blocking was calculated at various concentrations of antibody (FIG. 8C).

[3] = target: T2, biotinylated recombinant human ILT2-Fc; assay: B2M blocking ELISA: plate-bound recombinant human B2M-His, biotinylated ILT2-Fc at 20 µg/ml, titrated antibody, streptavidin-HRP; blocked ligand B2M
Protocol: To test whether 15G8 can block the interaction between ILT2 and B2M, a B2M blocking ELISA was performed. 96 well nickel plates were coated with recombinant human B2M-His tag (3 μg/ml; Sino Biologics, 11976-H08H) overnight. Biotinylated ILT2-Fc (20 μg/ml; Sino Biologics, 1614-H02H; Innova Biosciences, 370-0010) was added for 2 hours at 37° C., which allowed ILT2 binding to B2M, in the presence or absence of titrated BND-22 or an irrelevant antibody (anti human CD28, Biolegend, 302934) (Ab range of 80-0.1 μg/ml, ×3 fold). ILT2 binding to B2M was detected by HRP conjugated streptavidin (R&D Systems, DY998). The absorbance was measured using an ELISA Reader (Biotek Synergy-H1 plate reader).

recombinant ILT2 (human) [4] = target: T3, recombinant ILT2 (human) (human, UniProt Q8NHL6 24-461); assay: SPR (Biacore T200), HEK EBNA supernatants on recombinant ILT2 peptide
T3 construct: also called recombinant ILT2 peptide; ILT2 protein
Protocol: (§3) During grafting of the 15G8 CDRs, five heavy chains and four kappa light chains were generated. These chains were designated VH1-5 and Vk1-4. By combining each heavy chain with each light chain twenty different resultant antibodies are possible. All twenty possible antibodies were transiently expressed in HEK EBNA cells, and the supernatants were tested for binding to recombinant ILT2 peptide using a Biacore T200. The chimeric 15G8 antibody was used as control.

[5] = target: T2, biotinylated recombinant human ILT2-Fc; assay: flow cytometry blocking assay: ILT2-biotin binding to cells expressing HLA-G
Protocol: as §1, §2

[6] = target: T2, biotinylated recombinant human ILT2-Fc; assay: flow cytometry blocking assay: ILT2-biotin binding to cells expressing HLA-G [right panel]
Protocol: as §1, §2

[7] = target: T1, human ILT2 fused to mouse CD3 zeta …; assay: cell-based or functional assay
recombinant ILT2 (human) [8] = target: T3, recombinant ILT2 (human); assay: SPR (Biacore T200); KD relative to Control (chimeric 15G8)
Protocol: as §3

T3 sequence (Q8NHL6 24-461 limits assumed): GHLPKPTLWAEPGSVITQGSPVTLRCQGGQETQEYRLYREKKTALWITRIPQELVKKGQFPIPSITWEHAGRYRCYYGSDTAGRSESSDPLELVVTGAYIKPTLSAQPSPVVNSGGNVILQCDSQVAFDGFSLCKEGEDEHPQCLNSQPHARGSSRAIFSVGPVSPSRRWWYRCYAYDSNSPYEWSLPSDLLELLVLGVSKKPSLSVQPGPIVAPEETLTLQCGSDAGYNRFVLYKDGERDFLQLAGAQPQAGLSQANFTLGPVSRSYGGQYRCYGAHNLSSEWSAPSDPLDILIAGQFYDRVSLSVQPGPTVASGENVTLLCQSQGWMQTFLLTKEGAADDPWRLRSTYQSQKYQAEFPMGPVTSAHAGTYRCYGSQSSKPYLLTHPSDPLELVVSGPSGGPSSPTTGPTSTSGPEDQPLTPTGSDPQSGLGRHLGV
T2 sequence (Q8NHL6 24-458 limits assumed): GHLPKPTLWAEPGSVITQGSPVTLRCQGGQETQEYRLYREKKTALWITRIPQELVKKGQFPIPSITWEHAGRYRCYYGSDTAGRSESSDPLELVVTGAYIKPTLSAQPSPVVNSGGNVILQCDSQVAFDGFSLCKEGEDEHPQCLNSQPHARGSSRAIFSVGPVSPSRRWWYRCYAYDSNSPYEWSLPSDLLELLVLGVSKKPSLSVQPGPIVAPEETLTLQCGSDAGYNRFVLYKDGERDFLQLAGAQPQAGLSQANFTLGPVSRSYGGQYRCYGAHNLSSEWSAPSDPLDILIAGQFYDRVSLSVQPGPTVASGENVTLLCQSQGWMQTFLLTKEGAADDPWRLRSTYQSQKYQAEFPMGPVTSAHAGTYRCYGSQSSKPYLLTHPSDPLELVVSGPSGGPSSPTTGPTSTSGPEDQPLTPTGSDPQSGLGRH
T1 sequence (P24161 other isoform, or with tags, fused parts or gaps limits assumed): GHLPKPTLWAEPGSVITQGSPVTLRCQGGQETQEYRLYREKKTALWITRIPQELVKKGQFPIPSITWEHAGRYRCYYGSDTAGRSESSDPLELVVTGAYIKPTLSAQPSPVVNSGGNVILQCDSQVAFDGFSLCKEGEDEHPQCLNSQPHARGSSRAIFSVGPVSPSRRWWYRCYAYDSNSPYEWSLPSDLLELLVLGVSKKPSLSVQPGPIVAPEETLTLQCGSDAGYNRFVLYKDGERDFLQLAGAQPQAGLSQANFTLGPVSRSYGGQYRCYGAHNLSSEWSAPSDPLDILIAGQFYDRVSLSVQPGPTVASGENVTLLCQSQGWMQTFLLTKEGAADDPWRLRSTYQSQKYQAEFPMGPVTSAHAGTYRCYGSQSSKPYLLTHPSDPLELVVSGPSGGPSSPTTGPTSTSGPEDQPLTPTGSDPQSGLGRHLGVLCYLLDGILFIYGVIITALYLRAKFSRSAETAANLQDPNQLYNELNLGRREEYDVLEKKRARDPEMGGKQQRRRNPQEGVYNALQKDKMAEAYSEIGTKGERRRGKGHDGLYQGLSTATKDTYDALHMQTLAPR

Binder | EC50 (read off the curve) [1] [mg/L] | IC50 (read off the curve) [2] [mg/L] | IC50 (read off the curve) [3] [mg/L] | Kd (recombinant ILT2 (human) [4]) [nM] | koff (recombinant ILT2 (human) [4]) [s⁻¹] | kon (recombinant ILT2 (human) [4]) [M⁻¹ s⁻¹] | IC50 (read off the curve) [5] [mg/L] | IC50 (read off the curve) [6] [mg/L] | IC50 (read off the curve) of Blocking (%) in the BW-ILT2 / A375-HLA-G mouse IL-2 reporter assay [7] [mg/L] | Relative KD (recombinant ILT2 (human) [8])
chimeric 19E3 (antibody, V domains shown, Chimera of murine 19E3; also called chimeric murine 19E3) VH: QVQLQQSGAELARPGASVKLSCKASGYTFTSYGISWVKQRTGQGLEWVGEIYPGSGNSYYNEKFKGKATLTADKSSSTAYMELRSLTSEDSAVYFCARSNDGYPDYWGQGTTLTVSS VL: DIQMTQSSSYLSVSLGGRVTITCKASDHINNWLAWYQQKPGNAPRLLISGATSLETGVPSRFSGSGSGKDYTLSITSLQTEDVATYYCQQYWSTPWTFGGGTKLEIK | ~0.6 | ~0.6 |  |  |  |  |  |  |  | 
15G8-13 (humanized 15G8, VH1/Vk3, alanine variant A108) (antibody, human IgG4 S228P, kappa, V domains shown, Humanized IgG4 (S228P, L235E), kappa; also called 15G8 humanized antibody; BND-22) VH: DVQLQGSGPGLVKPSETLSLTCSVTGYSITSGYYWNWIRQFPGKKLEWMGYISYDGSNNYNPSLKNRITISRDTSKNQFSLKLNSVTAADTATYYCAHGYSYYYAMDAWGQGTSVTVSS VL: DIQMTQSPSSLSASVGDRVTITCRTSQDISNYLNWYQQKPGKAVKLLISYTSRLHSGVPSRFSGSGSGTDYTLTISSLQPEDFATYYCQQGNTLPTFGQGTKLEIKR |  |  | ~8 | 6.94 | 0.00905 | 1.3e+06 | ~0.3 | ~0.2 | ~0.02 | 0.55

— patent publication US20220048991A1 (BIOND BIOLOGICS, published 2022)
